From patent US9115383B2, “Fluorescence assay for ghrelin O-acyltransferase activity” (Syracuse University, priority 2012, dated 2015)
No end group written: not given here. *: point of attachment. acrylodan = acrylodan label (AcDan) on Cys, CN(C)c1ccc2cc(C(=O)CC*)ccc2c1; Dansyl = CN(C)c1cccc2c(S(=O)(=O)*)cccc12

Target: T1, hGOAT (Homo sapiens, UniProt Q96T53)
T1 construct: the gene for hGOAT was cloned with a C-terminal His10 tag into the pFastBacDual vector; His10 (C); made in house; host or cells: Sf9 insect cells, baculovirus (pFastBacDual); used as membrane fraction
T1 sequence (Q96T53 1-435): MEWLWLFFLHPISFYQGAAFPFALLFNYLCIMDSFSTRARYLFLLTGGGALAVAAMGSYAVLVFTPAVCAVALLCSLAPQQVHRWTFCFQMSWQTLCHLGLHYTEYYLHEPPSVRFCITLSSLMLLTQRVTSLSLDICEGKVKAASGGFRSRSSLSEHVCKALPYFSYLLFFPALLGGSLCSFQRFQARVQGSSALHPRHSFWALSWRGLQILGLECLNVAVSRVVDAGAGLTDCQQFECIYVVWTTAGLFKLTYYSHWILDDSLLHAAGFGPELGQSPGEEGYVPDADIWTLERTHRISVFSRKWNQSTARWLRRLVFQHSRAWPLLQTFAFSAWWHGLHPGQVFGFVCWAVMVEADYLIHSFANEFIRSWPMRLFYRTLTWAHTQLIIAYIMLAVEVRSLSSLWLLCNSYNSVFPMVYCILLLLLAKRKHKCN
Assay: hGOAT-catalysed octanoylation of fluorescent ghrelin peptide substrates, RP-HPLC with fluorescence detection
Type: biochemical
Conditions: for modification (octanoylation) by hGOAT: RP-HPLC with fluorescence detection, hGOAT-His10 membranes vs mock membranes; for Active with hGOAT?: peptide tested as substrate, hGOAT-His10 membranes in parallel with mock membranes; for activity with hGOAT (substrate selectivity at N-terminus, G1 and S2): ghrelin mimic peptide mutants, FIG. 5
Procedure: FIG. 3 is a schematic of ghrelin peptide acylation reactions with the fluorescent GSSFLCAcDan substrate, where (A) is a reaction with control/mock membrane fraction; (B) is a time course for GSSFLCAcDan acylation using GOAT membrane fraction, and where the assays were incubated for 1-10 minutes at 37° C. and all reactions were analyzed using reverse-phase HPLC under the following assay conditions: 10 μM peptide, 50 μg membrane protein, 500 μM octanoyl coenzyme A, 100 μM palmitoyl coenzyme A, 50 mM HEPES buffer pH 7.0.
In order to test the activity of peptide substrates, the gene for hGOAT was cloned with a C-terminal His10 tag into the pFastBacDual vector and expressed using standard baculoviral procedures.
With the peptide substrates, the addition of the hydrophobic octanoyl group upon serine acylation at position 3 leads to an increase in retention time in reverse-phase (RP) HPLC. The panel of fluorescent ghrelin peptide substrates was assayed for activity with hGOAT using HPLC coupled with fluorescence detection of the fluorescently labeled peptides. All reactions with hGOAT-His 10 membranes were performed in parallel with mock membranes to account for nonspecific peptide modifications.
An assay for human ghrelin O-acyltransferase activity was performed using hGOAT expressed from insect (Sf9) cells using standard baculoviral methods and a fluorescent 6-mer peptide synthesized by a single step reaction followed by high performance liquid chromatography (HPLC) purification. The assay was performed at room temperature using hGOAT membrane protein, octanoyl-CoA, a fluorescent ghrelin peptide, a buffer, and a detergent. Activity may be measure by detecting the presence of any octanoylation of the ghrelin peptide. For example, the presence of octanoylated ghrelin peptide may be confirmed by HPLC or by using a fluorescent system whose fluorescence will increase as a result of octanoylation of the ghrelin peptide.

| Active with hGOAT? | activity with hGOAT (substrate selectivity at N-terminus, G1 and S2) | Substance | modification (octanoylation) by hGOAT |
| --- | --- | --- | --- |
| No | – | GCAcDanSFLS (SEQ. ID No. 3) (GC(acrylodan)SFLS; ends and bridges not checked) [AcDan-2, ghrelin mimic peptide with acrylodan on cysteine at position 2] | not modified by hGOAT |
| – | low activity | [Ac]GSSFLC (SEQ. ID No. 1) | – |
| Yes | – | GSSFLCAcDan (SEQ. ID No. 5) [AcDan-6] | yielded the octanoylated peptide with increased retention time |
| – | no activity | [Ac]SSFLC (SEQ. ID No. 6) (Ac-SSFLC; not fully specified; ends and bridges not checked) [N-terminally acetylated ghrelin mimic peptide lacking G1] | – |
| Yes | – | GSSFCAcDanS (SEQ. ID No. 4) (GSSFC(acrylodan)S; ends and bridges not checked) [AcDan-5, ghrelin mimic peptide with acrylodan on cysteine at position 5] | yielded the octanoylated peptide with increased retention time |
| No | – | Dansyl-GSSFLS (SEQ. ID No. 2) (ends and bridges not checked) [Substrate 1-Dansyl, ghrelin mimic peptide with N-terminal dansyl fluorophore] | not modified by hGOAT |
